Results reported in the supplement of paper PMC12636428.

Tested on: Saccharomyces cerevisiae
Test: transcriptional activation domain activity (GFP:mCherry ratio, weighted mean of sorted bins, harmonized to initial dataset scale) (arbitrary fluorescence ratio units); higher = stronger transcriptional activation
Settings: beta-estradiol 1 µM; induction time 4 h
Procedure, shortened: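 Each value is an activation activity: the read-weighted mean of bin median fluorescence, averaged across barcodes, then mapped linearly to the initial dataset scale. The tiles, fused to an estradiol-inducible synthetic transcription factor, sat at the yeast URA3 locus in GFP-reporter diploids. Cells spent 4 hours at 30 °C in SC with 1 uM beta-estradiol before sorting into 8 GFP:mCherry bins, and tiles below 50 reads were removed.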

Sequence | transcriptional activation domain activity
MAYLFLYFTIFFIFFFIAGDGGDDCEIFFLFFFFSFKALFTPFFYLYLYWTSA | 25400
LIRIKDFTPNEVAAVVTYYSCRTNGMIPLTGRKWLGRIICRCLPLFDMLLFYR | 37500
RLDATAEEEAKRQRACEACRALKVRCDRGSDDSPCKRCEKARRECVITQPSRK | 40300
YEHSFEIWLACTVVFPGAGNIGFTLLEYRLGHRSLASSFFENITWIPFFFFFF | 53900
MHRELTGYFFSFFFFLFFFSFFIHISRLAVYIWDWVTSLHFFIFVILNILGSS | 66700
PVRGIVELPRNSFPDEVLHFTCLTIVCAAIFFLFSSFLFFFCLLHLSCYLFVP | 30800
MILWARAWISLFLFLYLLFYLFVFSLDIPPFLLYTFFIFILLLCVFACTYRHK | 49200
AAAGAREVKHPAAKKQKKIEGGSETKDEEEKSSSKKRQKSESKSKSKSKSKSK | 28300
MCEGDFCVFFCVCVCVCVCLCVLFCFLFWFLFWWLLFFFLVMLFLAVGVFVYI | 35400
QRTNEDLDVDYVPYDHMGISFWDHLDPSRIAVPSHHNIFRIVVWLFFLVVYSQ | 53700
VDASTIARLSSPELGAREQLRQEEERRRKIERRARRRERRERERSSALLHLTG | 33400
MSLASLAAQRSNCMKRAVGCVLVGRERRVISTGYNGTPRGIRNCGEGGCARCN | 44500
APKEETTKPTIEVKIDVGSRCEVESTEPGLSKRGTVRFVGQTSFGNGEGVWVG | 42200
LRPHRYFHTNQIYYAAILIDLILRFTWLSRLSVRINWINDLESGVFVLMFLEV | 62500
LSDDEEEEGGKGREGEGRERKRRGREGKRKGGEERGRGRGREGEREGGEGEGG | 27300
PPPPPPPPPPPLSLLTTAIPPPPPPPPPLGGGPPPPPPPPPGPGGPPPPPPPP | 30700
NRKTIGKQDPYCAARLGKEAKKTETDRRGGQTPRWDQELRFTVHDSADYYQLK | 44000
MASASLASKQSIRPHRKSRTGCSTCKRRKVKSLAVVGAGLGRSGQVTAGSPTG | 54100
NAIISNLMLGMLLFCGSLYLLITFLPILSSDCPYSTPMSVPWWRILRALGAVG | 37900
ESDILPRLLHAIRAELKEDISLKFAWRLYKLYLLCVYHLWKNVVLMIWYRRWI | 81700
GGEGRGGHPAACRGGCFARYPFTPSFLLYFLLLFFYRGVHVPISFFFLFLFLF | 46500

Sequence | transcriptional activation domain activity
DYTNWLGRNIVAWASKEPSTDDVKLCSGLLVKGLRLGHSDALVKLLVSMLFLT | 49000
MNPPDNIIILPFHPLPFFWLLIFIPFSLSLPSSFFFNSNLSFLFFFFVFCFMI | 68600
MVWFWFWLRYLFFFFFLFSKNTLIGLFLLLLLLLHLFLRSLPILLVCASRVFF | 53300
QWIHQYIAVPSGTPRDKCHLRQFCYMGLEQWGVGFIIGLLPLLLSVSLCIFLV | 60400
RPWRWSFGVYVLCRTLALGGIISAFVGFSPFNEFHCDVWLRFLLVFSWFAIAS | 66600
RFVTNILVILSDRVNMEQLLKRIRKKAADFYHFTDLWQWCCAQFVKLLRKVYN | 55100
QVKGNAATLVVRSLALNADLCKLVECLWFLDRYVLVEGKHWAAALPRMKNLWF | 32200
PTLLVALLALLIPHILIFIAKKINTIMTLSALHDRLMIRYYKFLVINVLVFFC | 39300
ESSSDEEEMTVAQKMAAQRKAEAAARRAKAHEEALAARSKDDLRSPICCILGH | 53200
MLISLLVRLGLDIFMHLYMLLLHISQFSDLLHTRSFLLILFLISGASKRLFFF | 51900
ILQCIQYFANFRRDSAWMKLIVWLLFLSFPGLFGLLPHFFVYRFLDTLHVLLI | 68900
GEGRAGGGRGGRKDSRDDRRGNRNSSNERDRSRNRRNSNGNNRSKKNDSDRGR | 24400
SGADEFDVGASIEPTFATPRLTRTSETGTSESTSRRPSERSRSRARVLGLPVG | 38500
SPWSLPHLESKFVEDGLYYAIQVISYISKINSKASYYYYQIRMLLVASRFIMQ | 46000
YTIGFVGFVMSLQKGYLKQQFGLFCWVHMSLLIIVLSSHFVINNILEGLIWFW | 54600
RADHARRKSPARSRSASASSRSSSRSRSGSRGSDQANRRRRAASPGAQGDGRK | 39900
TSSPRRNSPPTRSTSSSPPSSPTSPYPSSSPPRPAPSPRPCARRGPKTPPSRP | 30300
RGSLREDESQHIATGVEGVHEARDGGRRTSNARAEKTKRVATPVCLSAAHTRG | 28600
GQGPLRSSYSMAYDSPVDRAMNTPLQQQEGLKAELPHDFLFQHGTDDTMYNLT | 36100
SAKEEPGAAETDADTDPEPAAGKKRKRQEDKGEAQEGGSGKKSVGGKKAKQAE | 19200
KLRHRLEDEKEANFFRAIIHFTGLRLPQARSKPVNVVRGILLVLCQLVQFSGR | 57100

Sequence | transcriptional activation domain activity
MVEGDEKPARNGGPALQVIVLGSGGGPREDNTTAFLVRSVASGWKRGSVLAVD | 55100
AQSTSVVLVFGSDEKKVKEIGEGLKSKLGIKGGGKGTRWSGKFTGVWKDAREG | 46700
CDSGNEFDGRIGLRVSSIFVILIGSLIGAMLPVVLARSSKMRVPKLAFFVAKY | 36900
MYILILIFFLSFFLSFLNGSILYLGIVLLPCAYRRVYTVVCLVFTIQIVLRIK | 61400
AIEEIRQDNESRQRENRVVYDRTDKDNERNESLNHQQGIRLVIIDSIHQPVTT | 45700
MLLLPYAVFCIISFFHSFLFFLLLGGWLGCIFYLRVVHMHWLVRWFVWLVHGG | 65300
MICCDLSFGGKLFCKQLFLLLLVFCAILHYNWRWVYSDVLVMILMLAMIISLA | 43600
MIITFYTFFSFFPFFISFSLSLFSLRYFFFFFSFLSLSFFFFLFFLILIHLFL | 14400
VLLYFCSGYMFAILITVAYILLQFLVPLITDAHVLFFEWTFFEFLFRIWFLLW | 79500
RFYVYLLILLGCIIWINQCQYATDRSGYQRGHSAVLRALFYRLCRLLQTAITP | 35000
MSLFMLRTLPSFVCSSFCAMLHFCCSYSLLFYYWALSLPRWLPIPSGFIPIAF | 60200
MWTVLVGFIRGFLLLLWHLAYPFHFFLYFQLILSSHRLEWLISLFVDAMTGIA | 33400
KEREQREQREQRRKEEREREKERERERELRERERERERERQQAREEAERAAMG | 15400
LSSFFLGLLHIGFSLVGYLSLLRISPNVFSVLPRDHTWFNISRFLVLCTILPL | 59300
KWVAHSVVEKCVLLLILWHRYAMDVVRECSEAWEKLITGKTAPNGISTTNLTV | 31500
AQRHLLKCIVFRTEKSLINFVPELTEAKARDIRMLHFYPPALQRAALILLVKT | 47500
HRAGTSGQSLQQDDVLHVTRATLVELGNTSISTVIASLLVLLEDLARPYAAVA | 36000
VQASMAADYAISQFRFLHKLLLVQGHWSYARISEMILTFFFKNIFWVFPSLWY | 56100
EAEQEVQQKPAKGKKALAAAKSSAEDAEPEAAPAPKKSALKDGEASAAAPAPS | 21800
LESTHSLLALLNFIAFLCDGRFRTIADRLLNVRLIPSRRLVKRDVSYEFMNRQ | 46300
VLGCAKIGVVLLSLWHMFHFAHYINVSPTEIFCISPVLGSWSWETLCFMMTVV | 49600

Sequence | transcriptional activation domain activity
TSTKKTTTTKKATSTKSATATSSCTKYTVKKGDTCSSIASKVGGTTAAKIISK | 34000
ALNAIIEGFQLFRSAFQPASLSVSMVHSVSVLVNWPSPYFTSLLLPGYDIGFP | 62800
RPSLGCILFILIRYVSIIVMVVSNYGVLSTSFTEKVCERYFMIAPVFKVIQTM | 50600
MKGVCLKVGVVRPKKPNSGERKTARVRLSNGRQVTAYISGEGHNIQQHSVVLV | 53500
ASIPEPTANLFLDSINTFGSIDIFDSDLDLNNTLQWADLFDLNFDNIMMTPQF | 123000
PFVTRCQRNIRIACLICFFFTYSLFHLAFYVGLERRNVPVPLGNHFWSVYGFA | 38200
MDFNQLLAIFYDCIFPFREFYRWLYYGGVVQKNYFLHRELSFTLSNDAYLRFK | 41100
ESEEEVAAGSSANGKKQSGTRDSSKRSKKSDSKSEAKRSDKAEGAAEKTAPES | 18500
SSIVYLHPPLLHCLFLFPLLLLRLLAILAFSFLYLINLVLGTLGSCFSFFFRD | 34600
MARLHIGQLCSRSFFYALLVLSTWSSKLVYLWPHLTSSLPPLLIVLYIPTFLL | 72900
LPFYFFLHCTLSMIPSIHSPSFLQSYICFMLIPPLPLMFIVVFHPLYFFWLFL | 15000
LHGFDWSEEDDMSDGLPFLKTDPNNNGFFGDGSLLCILRSIGFKPENYTNSNV | 50300
VRYHVKNSPISGWVYEAKHVSDILATNTLLARIVIAKVQDEQRLVHLLQCLPI | 68800
EMGLSTAPGHQTAEFTITGIGLILKTLWLCADLITFLLSLQRLIFHALVLLFS | 64300
VFLGMLFWHCRNYLTSYHYLFSTLAIWVLSYIMRLFYLNWSNPWRMSWLIGDE | 58300
TGAKAPEGGKQLIVVVSSDKGLCGGIHSAVTKKTRQEYAAAPAEDKPQLIVVG | 63400
SKTAGPSSNSPSQTGKDDKAAASSSTSAGGAPAATGRVIAGLAAGVAMGLAAA | 37700
RGWMVYIGFLVVFYSAAGFGLSVVNNFTLLIGVYKFVYPITTTLFQLIFTQIF | 50200
ASEPVKEETKPPVEEHASEPVEEETKPVEEEIKPVEEHASEPVKEETKPAEEH | < 6570
PPPPPPPPPGPSPARFAPPPAPPPPPPPSGRPAPPPAPPPPPPPPPPAFGGGP | 17000
